How the values were obtained:
[1] = biological target: HD1 (MBP-HD1);GHD8 (His-GHD8, NF-YB) (Oryza sativa (rice);Oryza sativa (rice), UniProt Q9FDX8;Q0J7P4 1-395;1-297, |); assay: EMSA; 5 mM Tris pH 7.5, 25 mM KCl, 0.5 mM DTT, 5 mM MgCl2, 2.5% glycerol, 0.05% NP-40, 50 ng/uL poly(dI-dC), room temperature 20 min, 5% polyacrylamide gel; conditions: protein: recombinant;recombinant; tags: MBP (pMAL-c2X; text says MBP 'at the down-stream');N-terminal thioredoxin-His (pET-32); copies: 1;1; label: 3'-biotin; blunt
[2] = biological target: HD1 (MBP-HD1);GHD8 (His-GHD8, NF-YB);OsHAP5b (His-HAP5b, NF-YC) (Oryza sativa (rice);Oryza sativa …, UniProt Q9FDX8;Q0J7P4;Q655V5 1-395;1-297;1-250, ||); assay: EMSA; considerably stronger signal than HD1 alone; 50x/100x unlabeled F1 competitor; 5 mM Tris pH 7.5, 25 mM KCl, 0.5 mM DTT, 5 mM MgCl2, 2.5% glycerol, 0.05% NP-40, 50 ng/uL poly(dI-dC), room temperature 20 min, 5% polyacrylamide gel; conditions: protein: recombinant;recombinant;recombinant; tags: MBP (pMAL-c2X); copies: 1;1;1; label: 3'-biotin; blunt
Sequence of HD1 (MBP-HD1);GHD8 (His-GHD8, NF-YB);OsHAP5b (His-HAP5b, NF-YC) (Q9FDX8 whole entry, chain 1 of 3): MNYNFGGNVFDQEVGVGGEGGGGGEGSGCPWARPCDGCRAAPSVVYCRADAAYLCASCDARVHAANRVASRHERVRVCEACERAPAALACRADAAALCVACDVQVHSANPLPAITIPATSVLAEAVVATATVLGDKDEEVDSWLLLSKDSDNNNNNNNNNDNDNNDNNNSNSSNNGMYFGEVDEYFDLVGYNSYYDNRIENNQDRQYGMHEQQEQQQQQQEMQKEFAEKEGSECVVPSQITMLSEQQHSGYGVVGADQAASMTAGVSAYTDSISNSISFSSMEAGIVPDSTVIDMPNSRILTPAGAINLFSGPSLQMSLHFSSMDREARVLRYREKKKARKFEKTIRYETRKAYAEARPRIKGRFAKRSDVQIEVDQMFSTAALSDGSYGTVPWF
Sequence of HD1 (MBP-HD1);GHD8 (His-GHD8, NF-YB);OsHAP5b (His-HAP5b, NF-YC) (Q0J7P4 whole entry, chain 2 of 3): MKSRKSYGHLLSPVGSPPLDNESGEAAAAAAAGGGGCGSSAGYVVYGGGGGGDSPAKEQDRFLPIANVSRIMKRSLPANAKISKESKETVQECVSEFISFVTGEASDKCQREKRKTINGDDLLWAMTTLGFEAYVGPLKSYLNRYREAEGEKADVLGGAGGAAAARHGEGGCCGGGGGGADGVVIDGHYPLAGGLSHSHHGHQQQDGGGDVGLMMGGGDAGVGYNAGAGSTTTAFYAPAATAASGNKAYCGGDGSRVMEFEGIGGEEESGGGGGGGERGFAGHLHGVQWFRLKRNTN
Sequence of HD1 (MBP-HD1);GHD8 (His-GHD8, NF-YB);OsHAP5b (His-HAP5b, NF-YC) (Q655V5 whole entry, chain 3 of 3): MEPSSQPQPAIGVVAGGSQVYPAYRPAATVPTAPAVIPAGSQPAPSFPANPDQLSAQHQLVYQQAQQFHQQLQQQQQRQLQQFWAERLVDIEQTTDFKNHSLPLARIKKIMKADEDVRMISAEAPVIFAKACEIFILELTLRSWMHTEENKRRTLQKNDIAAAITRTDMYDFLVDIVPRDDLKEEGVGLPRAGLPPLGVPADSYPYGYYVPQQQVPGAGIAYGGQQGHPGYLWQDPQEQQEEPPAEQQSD

Sequence of HD1 (MBP-HD1);GHD8 (His-GHD8, NF-YB) (Q9FDX8 whole entry, chain 1 of 2): as the sequence (Q9FDX8 whole entry, chain 1 of 3) above
Sequence of HD1 (MBP-HD1);GHD8 (His-GHD8, NF-YB) (Q0J7P4 whole entry, chain 2 of 2): as the sequence (Q0J7P4 whole entry, chain 2 of 3) above

B1: F1 (dsDNA)
DNA 1: ATCTGGTTGCAATGGGGATGGCCAATGAGGAGTCG
DNA 2: CGACTCCTCATTGGCCATCCCCATTGCAACCAGAT
Does B1 bind [1]?
Result: binds

Does B1 bind [2]?
Result: binds
